Reference: article PMC7583084, “Biochemical Characterization of a Flavonoid O-methyltransferase from Perilla Leaves and Its Application in 7-Methoxyflavonoid Production” (Molecules, 2020)

How the values were obtained:
Conditions in all cases: co-substrate SAM (100 µM in activity assay), 20 mM Tris-HCl pH 7.5, 37 °C, substrate 0.5-100 µM
[1] = substrate: O=c1c(O)c(-c2ccc(O)cc2)oc2cc(O)cc(O)c12; assay: HPLC assay of 7-O-methylation; assay type: biochemical, Perilla frutescens
[2] = substrate: O=C1C[C@@H](c2ccc(O)cc2)Oc2cc(O)cc(O)c21; assay: HPLC assay of 7-O-methylation; assay type: biochemical, Perilla frutescens
[3] = substrate: O=c1cc(-c2ccccc2)oc2cc(O)cc(O)c12; assay: HPLC assay of 7-O-methylation; assay type: biochemical, Perilla frutescens
[4] = substrate: O=C1C[C@@H](c2ccc(O)c(O)c2)Oc2cc(O)cc(O)c21; assay: HPLC assay of 7-O-methylation; assay type: biochemical, Perilla frutescens
[5] = substrate: O=c1cc(-c2ccc(O)c(O)c2)oc2cc(O)cc(O)c12; assay: HPLC assay of 7-O-methylation; assay type: biochemical, Perilla frutescens
purified protein = substrate: O=c1cc(-c2ccc(O)cc2)oc2cc(O)cc(O)c12; assay: purified protein

B1: PfOMT3 (Perilla frutescens) (protein)
chain: MKNSSTDEDLSIFAMQVATSSIVPRALKAVIELDLLEMMKKAGRPLSTSEMAAQIQATNPEAALMIDRILRVLIASNILECTTAASHGGAERLYSLAPVCKFFTKNDDGVSWAPLFLMIQDRVFTEAWDHVKDAIVEGGIPFNIAHGMSGFEYPATDPRYNKIFNQAMSDESTMFMHKILELYDGFDGLKSVVDVGGGIGASLKMIITKYPSIQAINFDLPHVIQNAPSHPGLEHRSGDMFVSVPTGDAILLKWIIHNWSDGHCLKLLKNCYEALPEKGKVIIADRILPETENYKEASASVDLAGDALMLTLFTGGKERAEAEFQALAKASGFKHFRKVCCAFSTWIMELYK
notes: primers encode MKNSSTD at start and IMELYK at end
Work on B1 yielded a Km [1] of 17.88 ± 0.49 µM, a Vmax [1] of 0.00581 µmol/min/mg and a kcat [1] of 0.00397 s⁻¹. It also gave a kcat/Km [1] of 222 M⁻¹ s⁻¹, a Km [2] of 13.40 ± 1.29 µM and a Vmax [2] of 0.0517 µmol/min/mg. The kcat [2] was 0.0353 s⁻¹, the kcat/Km [2] was 2630 M⁻¹ s⁻¹ and the Km [3] was 1.31 ± 0.25 µM. The Vmax [3] was 0.00205 µmol/min/mg, the kcat [3] was 0.0014 s⁻¹ and the kcat/Km [3] was 1070 M⁻¹ s⁻¹. It also gave a Km [4] of 13.08 ± 1.42 µM, a Vmax [4] of 0.00784 µmol/min/mg and a kcat [4] of 0.00535 s⁻¹. It also gave a kcat/Km [4] of 409 M⁻¹ s⁻¹, a Km [5] of 34.21 ± 4.65 µM and a Vmax [5] of 0.00418 µmol/min/mg. For the same protein, the kcat [5] was 0.00285 s⁻¹, the kcat/Km [5] was 83.4 M⁻¹ s⁻¹ and the Km (purified protein) was 3.72 ± 0.05 µM. It also gave a Vmax (purified protein) of 0.0133 µmol/min/mg, a kcat (purified protein) of 0.0091 s⁻¹ and a kcat/Km (purified protein) of 2440 M⁻¹ s⁻¹.
